Laboratory results published in publication PMC9482650, “Quantitative fragmentomics allow affinity mapping of interactomes” (Nature Communications, 2022).

Assays:
Assay in all cases: holdup assay
Set-up in all cases: key: below the threshold = too weak to quantify, mostly under pKd 3.1 to 4
[1] = target: T1, DFNB31_2, Q9P202
T1 sequence (Q9P202 274-371, limits assumed, looked up): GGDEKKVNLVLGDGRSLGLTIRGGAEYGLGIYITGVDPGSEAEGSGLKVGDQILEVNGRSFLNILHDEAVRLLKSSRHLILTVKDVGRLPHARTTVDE

[2] = target: T2, HTRA3, P83110
T2 sequence (P83110 354-453, limits assumed, looked up): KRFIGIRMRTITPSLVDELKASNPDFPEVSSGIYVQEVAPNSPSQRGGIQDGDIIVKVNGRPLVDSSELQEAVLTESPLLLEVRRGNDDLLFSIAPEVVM

[3] = target: Inadl_9, Q8NI35
[4] = target: LNX1_2, Q8TBB1
[5] = target: GRIP2_5, Q9C0E4
[6] = target: GRASP, Q7Z6J2
[7] = target: DLG4_3, P78352
[8] = target: T3, PARD3B_1, Q8TEW8
T3 sequence (Q8TEW8 196-299, limits assumed, looked up): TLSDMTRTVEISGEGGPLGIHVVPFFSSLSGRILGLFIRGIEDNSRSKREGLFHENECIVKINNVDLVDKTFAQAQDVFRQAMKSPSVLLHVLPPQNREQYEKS

[9] = target: HTRA1, Q92743
[10] = target: T4, SNTA1, Q13424
T4 sequence (Q13424 82-180, limits assumed, looked up): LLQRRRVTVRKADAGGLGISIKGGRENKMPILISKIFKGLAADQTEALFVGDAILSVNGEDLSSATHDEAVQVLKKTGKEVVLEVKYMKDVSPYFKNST

[11] = target: Inadl_2, Q8NI35
[12] = target: Inadl_6, Q8NI35
[13] = target: MAGI2_4, Q86UL8
[14] = target: MAST1, Q9Y2H9
[15] = target: IL16_1, Q14005
[16] = target: T5, DLG3_3, Q92796
T5 sequence (Q92796 374-475, limits assumed, looked up): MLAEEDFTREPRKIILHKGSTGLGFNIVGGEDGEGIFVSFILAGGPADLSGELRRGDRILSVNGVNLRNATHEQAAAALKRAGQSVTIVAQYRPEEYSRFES

[17] = target: T6, APBA2_1, Q99767
T6 sequence (Q99767 563-664, limits assumed, looked up): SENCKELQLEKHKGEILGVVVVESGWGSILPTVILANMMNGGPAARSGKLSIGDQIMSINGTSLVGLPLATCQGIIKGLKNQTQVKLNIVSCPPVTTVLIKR

[18] = target: T7, DFNB31_3, Q9P202
T7 sequence (Q9P202 811-907, limits assumed, looked up): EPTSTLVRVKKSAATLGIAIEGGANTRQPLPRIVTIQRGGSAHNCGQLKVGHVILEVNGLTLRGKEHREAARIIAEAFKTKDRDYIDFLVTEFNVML

[19] = target: SCRIB_1, Q14160
[20] = target: T8, SNTG1, Q9NSN8
T8 sequence (Q9NSN8 52-150, limits assumed, looked up): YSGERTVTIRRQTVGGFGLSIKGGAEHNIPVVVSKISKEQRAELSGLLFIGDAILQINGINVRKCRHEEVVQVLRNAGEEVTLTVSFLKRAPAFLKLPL

[21] = target: LAP2, Q96RT1
[22] = target: IL16_4, Q14005
[23] = target: T9, DLG3_2, Q92796
T9 sequence (Q92796 221-321, limits assumed, looked up): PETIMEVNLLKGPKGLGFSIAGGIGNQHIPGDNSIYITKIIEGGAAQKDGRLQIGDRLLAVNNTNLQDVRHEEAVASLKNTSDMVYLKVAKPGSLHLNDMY

[24] = target: T10, MPP6, Q9NZW5
T10 sequence (Q9NZW5 125-219, limits assumed, looked up): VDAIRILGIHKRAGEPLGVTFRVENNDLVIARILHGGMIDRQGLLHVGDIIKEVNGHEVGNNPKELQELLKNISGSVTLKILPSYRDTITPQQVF

[25] = target: NHERF2_2, Q15599
[26] = target: T11, APBA3_1, O96018
T11 sequence (O96018 389-490, limits assumed, looked up): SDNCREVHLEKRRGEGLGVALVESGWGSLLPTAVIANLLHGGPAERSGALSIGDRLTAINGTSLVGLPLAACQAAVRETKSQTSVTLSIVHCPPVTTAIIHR

[27] = plain residues with an end cap or a label only (N-terminal biotin on a linker: ado-ado)
[28] = plain residues with an end cap or a label only (N-terminal biotin on a linker: ahx)
[29] = plain residues with an end cap or a label only (N-terminal biotin on a linker: (peg)3)

Sequence of IL16_1, Q14005 (Q14005 210-306): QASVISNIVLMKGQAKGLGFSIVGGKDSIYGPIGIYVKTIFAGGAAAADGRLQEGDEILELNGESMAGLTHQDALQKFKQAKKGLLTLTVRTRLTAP
Sequence of IL16_4, Q14005 (Q14005 1229-1329): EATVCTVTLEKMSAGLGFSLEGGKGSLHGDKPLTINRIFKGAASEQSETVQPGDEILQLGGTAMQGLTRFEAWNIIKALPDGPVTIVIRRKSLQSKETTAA
Sequence of GRIP2_5, Q9C0E4 (Q9C0E4 544-642): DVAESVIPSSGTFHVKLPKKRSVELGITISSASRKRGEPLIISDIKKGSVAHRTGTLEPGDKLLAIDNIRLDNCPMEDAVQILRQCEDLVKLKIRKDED
Sequence of GRASP, Q7Z6J2 (Q7Z6J2 96-193): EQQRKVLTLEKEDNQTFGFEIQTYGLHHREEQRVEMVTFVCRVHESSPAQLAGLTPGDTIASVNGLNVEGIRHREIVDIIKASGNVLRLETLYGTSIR
Sequence of Inadl_9, Q8NI35 (Q8NI35 1530-1615): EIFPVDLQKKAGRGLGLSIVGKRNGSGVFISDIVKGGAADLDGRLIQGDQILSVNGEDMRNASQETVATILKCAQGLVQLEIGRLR
Sequence of MAST1, Q9Y2H9 (Q9Y2H9 962-1065): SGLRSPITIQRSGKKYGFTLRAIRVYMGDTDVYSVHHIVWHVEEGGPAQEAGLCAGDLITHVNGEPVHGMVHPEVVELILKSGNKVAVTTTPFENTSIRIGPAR
Sequence of HTRA1, Q92743 (Q92743 360-477): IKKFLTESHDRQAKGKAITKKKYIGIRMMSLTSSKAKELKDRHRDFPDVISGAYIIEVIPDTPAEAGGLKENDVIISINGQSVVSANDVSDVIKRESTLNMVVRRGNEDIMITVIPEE
Sequence of Inadl_2, Q8NI35 (Q8NI35 238-335): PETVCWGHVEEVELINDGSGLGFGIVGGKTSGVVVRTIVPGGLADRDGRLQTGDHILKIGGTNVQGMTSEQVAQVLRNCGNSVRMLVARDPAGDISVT
Sequence of SCRIB_1, Q14160 (Q14160 718-814): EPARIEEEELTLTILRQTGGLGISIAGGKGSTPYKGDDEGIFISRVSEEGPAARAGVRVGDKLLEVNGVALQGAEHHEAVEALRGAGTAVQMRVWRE
Sequence of NHERF2_2, Q15599 (Q15599 142-238): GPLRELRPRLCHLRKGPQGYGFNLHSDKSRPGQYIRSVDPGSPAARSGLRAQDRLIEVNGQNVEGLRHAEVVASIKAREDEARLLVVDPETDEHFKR
Sequence of MAGI2_4, Q86UL8 (Q86UL8 772-865): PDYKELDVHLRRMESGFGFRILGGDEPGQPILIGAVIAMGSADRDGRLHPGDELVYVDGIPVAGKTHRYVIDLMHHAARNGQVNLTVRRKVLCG
Sequence of LAP2, Q96RT1 (Q96RT1 other isoform, or with tags, fused parts or gaps): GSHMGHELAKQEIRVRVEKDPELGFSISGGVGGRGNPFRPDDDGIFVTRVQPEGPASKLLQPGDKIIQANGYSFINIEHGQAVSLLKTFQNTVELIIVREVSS
Sequence of Inadl_6, Q8NI35 (Q8NI35 1058-1167): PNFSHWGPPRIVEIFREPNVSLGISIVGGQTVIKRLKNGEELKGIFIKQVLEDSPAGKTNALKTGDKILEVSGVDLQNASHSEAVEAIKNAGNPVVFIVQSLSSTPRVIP
Sequence of LNX1_2, Q8TBB1 (Q8TBB1 371-470): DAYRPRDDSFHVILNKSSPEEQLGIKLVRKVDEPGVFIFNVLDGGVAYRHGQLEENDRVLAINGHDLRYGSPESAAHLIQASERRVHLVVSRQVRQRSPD
Sequence of DLG4_3, P78352 (P78352 306-403): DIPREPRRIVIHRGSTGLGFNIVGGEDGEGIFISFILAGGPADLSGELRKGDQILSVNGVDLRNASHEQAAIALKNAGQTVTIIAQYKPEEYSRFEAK

EIPAQSPTCV [FZD10, Q9ULW2]
pKd [1, 27]: below the threshold
pKd [2, 27]: 3.95
pKd [3, 27]: 4.6
pKd [4, 27]: 4.13
pKd [5, 27]: 3.7
pKd [6, 27]: 4.22
pKd [7, 27]: below the threshold
pKd [8, 27]: below the threshold
pKd [9, 27]: 4.57
pKd [10, 27]: 3.83
pKd [11, 27]: 3.58
pKd [12, 27]: 3.7
pKd [13, 27]: 3.65
pKd [14, 27]: below the threshold
pKd [15, 27]: 3.79
pKd [16, 27]: 3.81
pKd [17, 27]: below the threshold
pKd [18, 27]: below the threshold
pKd [19, 27]: 3.81
pKd [20, 27]: 3.83
pKd [21, 27]: 3.73
pKd [22, 27]: below the threshold
pKd [23, 27]: 3.88
pKd [24, 27]: below the threshold
pKd [25, 27]: 3.81
pKd [26, 27]: 3.57

DPAESMESLV [PTPRG, P23470]
pKd [1, 27]: below the threshold
pKd [2, 27]: below the threshold
pKd [3, 27]: 3.73
pKd [4, 27]: below the threshold
pKd [5, 27]: below the threshold
pKd [6, 27]: 3.62
pKd [7, 27]: below the threshold
pKd [8, 27]: below the threshold
pKd [9, 27]: 4.41
pKd [10, 27]: 4.46
pKd [11, 27]: 3.5
pKd [12, 27]: 3.88
pKd [13, 27]: 4.25
pKd [14, 27]: 4.31
pKd [15, 27]: 4.53
pKd [16, 27]: below the threshold
pKd [17, 27]: below the threshold
pKd [18, 27]: 3.88
pKd [19, 27]: below the threshold
pKd [20, 27]: 4.66
pKd [21, 27]: 3.96
pKd [22, 27]: below the threshold
pKd [23, 27]: 4.72
pKd [24, 27]: below the threshold
pKd [25, 27]: below the threshold
pKd [26, 27]: below the threshold

QPRTWLQSPV [RTKN, Q9BST9]
pKd [1, 28]: below the threshold
pKd [2, 28]: below the threshold
pKd [3, 28]: below the threshold
pKd [4, 28]: below the threshold
pKd [5, 28]: below the threshold
pKd [6, 28]: 3.9
pKd [7, 28]: 4.35
pKd [8, 28]: below the threshold
pKd [9, 28]: below the threshold
pKd [10, 28]: below the threshold
pKd [11, 28]: below the threshold
pKd [12, 28]: below the threshold
pKd [13, 28]: below the threshold
pKd [14, 28]: 3.85
pKd [15, 28]: 3.95
pKd [16, 28]: 4.41
pKd [17, 28]: below the threshold
pKd [18, 28]: below the threshold
pKd [19, 28]: 3.69
pKd [20, 28]: 3.52
pKd [21, 28]: 4.42
pKd [22, 28]: below the threshold
pKd [23, 28]: 4.04
pKd [24, 28]: below the threshold
pKd [25, 28]: below the threshold
pKd [26, 28]: below the threshold

RYEDTTLVEDTVL [WNV-NS5, Q9Q6P4]
pKd [1, 29]: below the threshold
pKd [2, 29]: below the threshold
pKd [3, 29]: below the threshold
pKd [4, 29]: below the threshold
pKd [5, 29]: below the threshold
pKd [6, 29]: 3.9
pKd [7, 29]: below the threshold
pKd [8, 29]: 4.66
pKd [9, 29]: 4.58
pKd [10, 29]: 4.14
pKd [11, 29]: below the threshold
pKd [12, 29]: below the threshold
pKd [13, 29]: below the threshold
pKd [14, 29]: 4.3
pKd [15, 29]: below the threshold
pKd [16, 29]: below the threshold
pKd [17, 29]: below the threshold
pKd [18, 29]: below the threshold
pKd [19, 29]: 3.95
pKd [20, 29]: below the threshold
pKd [21, 29]: below the threshold
pKd [22, 29]: 3.56
pKd [23, 29]: 3.76
pKd [24, 29]: below the threshold
pKd [25, 29]: 4.89
pKd [26, 29]: below the threshold
